The record followed here is patent publication US20160369011A1 (EISAI R AND D MANAGEMENT, published 2016).

Test [1] deals with T1, human endosialin/TEM1 extracellular domain fused to mouse IgG2b Fc (human).
T1 construct: also called TEM1-Fc
T1 chain: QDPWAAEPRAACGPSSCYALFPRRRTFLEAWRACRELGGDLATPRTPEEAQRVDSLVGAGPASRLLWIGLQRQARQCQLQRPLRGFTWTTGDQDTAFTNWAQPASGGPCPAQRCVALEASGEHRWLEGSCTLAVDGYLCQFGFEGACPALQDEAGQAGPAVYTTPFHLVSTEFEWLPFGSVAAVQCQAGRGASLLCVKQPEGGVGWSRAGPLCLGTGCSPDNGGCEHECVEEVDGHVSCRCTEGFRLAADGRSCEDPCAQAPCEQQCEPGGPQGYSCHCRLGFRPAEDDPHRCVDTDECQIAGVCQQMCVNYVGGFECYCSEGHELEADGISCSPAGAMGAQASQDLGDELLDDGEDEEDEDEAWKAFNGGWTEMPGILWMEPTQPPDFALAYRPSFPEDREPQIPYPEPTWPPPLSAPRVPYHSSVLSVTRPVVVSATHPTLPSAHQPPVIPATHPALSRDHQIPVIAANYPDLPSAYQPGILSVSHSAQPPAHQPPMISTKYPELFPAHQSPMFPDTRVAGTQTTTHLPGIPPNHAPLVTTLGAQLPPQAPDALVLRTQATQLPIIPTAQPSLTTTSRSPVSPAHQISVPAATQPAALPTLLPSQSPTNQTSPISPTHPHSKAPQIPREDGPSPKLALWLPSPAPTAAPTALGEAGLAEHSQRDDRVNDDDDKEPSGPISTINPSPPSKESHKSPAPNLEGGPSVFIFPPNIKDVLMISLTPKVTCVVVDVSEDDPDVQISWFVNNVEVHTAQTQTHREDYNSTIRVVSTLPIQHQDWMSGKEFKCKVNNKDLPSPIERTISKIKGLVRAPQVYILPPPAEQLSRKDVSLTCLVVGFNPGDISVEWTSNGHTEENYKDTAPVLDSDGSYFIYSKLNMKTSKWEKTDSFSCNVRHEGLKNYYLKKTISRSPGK
The test can be described thus: SPR, ligand TEM1-Fc, flow cell Fc3. A general note: Surface plasmon resonance follows binding to a sensor surface in real time, without labels.

For test [2], the target named is T1, human endosialin/TEM1 extracellular …. The test can be described thus: SPR, ligand TEM1-Fc, flow cell Fc4.
Test [3] concerns the target T2, human CA9 (carbonic anhydrase IX) (human, UniProt Q16790 38-414). The test is described as follows: SPR (BIAcore), biotin-CA9 captured on CAP chip, antibody 0-50 nM as analyte. The method, then: To determine if chimerization, and therefore the loss of Cys80-Cys171 disulfide bond, results in structural perturbations leading to loss of antigen binding, the binding affinity of mAbs 155D5, xi155D5, 1-55-2, and xi1-55-2 by surface plasmon resonance was evaluated. Biotinylated ligand (biotin-hTEM1 for 1-55-2, biotin-CA9 for 155D5) was captured on a coated biotin CAP BIAcore chip (GE Healthcare, Piscataway, N.J.) using HBS-EP as running buffer. Final antigen capture levels were 130 RU and 280 RU, respectively, for biotin-TEM1 and biotin-CA9. Serial dilutions of antibody (120 μL of 0-50 nM) were passed over the ligand-coated chip. […] The chip surface was regenerated with 6 M GuHCl, 250 mM NaOH. Sensograms were double referenced and kinetic parameters were determined using BIAEvaluations software (ver. 4.1).

In test [4] the target is T2, human CA9 (carbonic anhydrase IX). The test is described as follows: SPR, ligand CA9, flow cell Fc3.
The target is the same in test [5]. The test can be described thus: SPR, ligand CA9, flow cell Fc4.
For test [6] the target is unchanged. The test is described as follows: BIAcore, summary of Table 13; reference xi155D5; told of the group of humanized variants. As to the method:
(§1) Antibody concentrations were adjusted to generate 30-40 RU signal when bound to the antigen. […] The sensor surface was washed by injecting HBS-P buffer for 1 min at a flow rate of 50 μL/min. To record the antigen association to the captured mAb, a series of increasing concentrations of antigen was injected for 60 sec at a flow rate of 50 μL/min. The dissociation of antigen was monitored for 30 min at the same flow rate. The sensor surface was regenerated by injecting 3 M MgCl₂ for 1 min and then 30 sec at a flow rate of 30 μL/min. Sensograms were analyzed with Biacore T100 Evaluation Software using a 1:1 Langmuir binding model.
(§2) xi155D5 and the humanized variants were purified by standard protein A chromatography or the decapping method, and their affinity was analyzed using BIAcore (Table 13).

Test [7] shares this target. The test is described as follows: BIAcore T100, mAb captured on anti-human IgG, antigen as analyte, 1:1 model; mAb purified by protein A (ProA). As to the method:
as §1, §2

For test [8] the target is unchanged. The test is described as follows: BIAcore T100, mAb captured on anti-human IgG, antigen as analyte, 1:1 model; mAb purified by the decapping method (Decapped). As to the method:
as §1, §2

Residue numbers refer to the chain shown, from its start.

As a reminder, the Kd is a measure of binding affinity in units of concentration. Low values mean a tighter complex, high ones a looser complex. In general, koff refers to the rate constant with which the complex falls apart. Read a low koff as a long-lived complex. As a reminder, the kon is a measure of how fast the partners come together.

B1: xi1-55-2 Fab (Fab, V domains shown)
VH: QSVEESGGDLVKPEGSLTLTCTASGFSFSSSYWGCWVRQAPGKGPEWIACIYGGSSGTTYYPNWAKGRFSISKTSSTTVTLQMASLTAADTATYFCARVTNGGDWDFKLWGPGTLVTISS
VL: ELVMTQTPASVEVAVGGTVTIKCQASQSINTYLAWYQQKPGQPPKLLIYRASTLASGVPSRFKGSGSGTEFTLTISDLECADAATYYCQQSVRVIDVDNTFGGGTEVVVKR
notes: Made from xi1-55-2 by limited papain digestion and protein A removal of Fc; Fabs were fully decapped; not shown: human IgG1 CH1 and hinge up to the papain cleavage site
In test [1], B1 yielded a Kd of 0.382 nM, a dissociation rate constant (koff) of 0.000329 s⁻¹ and an association rate constant (kon) of 862000 M⁻¹ s⁻¹. In addition, in test [2], the equilibrium dissociation constant (Kd) is 0.376 nM, the koff is 0.000326 s⁻¹ and the kon worked out at 865000 M⁻¹ s⁻¹.

B2: 155D5 (rabbit anti-CA9 mAb) (antibody, V domains shown)
VH: QSVKESGGRLVTPGTPLTLTCTVSGFSLNSYAMIWVRQAPGEGLEYIGFITTGGTTYYASWAKGRFTISRTSTTVDLKLTRPTTEDTATYFCARDRVKSYDDYGDLDAFEPWGPGTLVTISS
VL: ELVMTQTPSSVSAAVGGTVTINCQASQSISSYLAWYQQKPGQPPKLLIYYASTLASGVPSRFKGSGSGTEFTLTITGVQCDDAATYYCLGVYGYSFDDGIAFGGGTELEIK
notes: Parental rabbit IgG with rabbit constant regions (Cys80-Cys171 disulfide); also called rabbit 155D5 MAb
With B2, in test [3], the Kd is 0.041 nM, the off-rate (koff) came to 2.1e-05 s⁻¹ and the on-rate constant (kon) came to 510000 M⁻¹ s⁻¹.

B3: xi155D5 Fab (Fab, V domains shown)
VH: B2 VH
VL: ELVMTQTPSSVSAAVGGTVTINCQASQSISSYLAWYQQKPGQPPKLLIYYASTLASGVPSRFKGSGSGTEFTLTITGVQCDDAATYYCLGVYGYSFDDGIAFGGGTELEIKR
notes: Made from xi155D5 by limited papain digestion and protein A removal of Fc; Fabs were fully decapped; not shown: human IgG1 CH1 and hinge up to the papain cleavage site
B3: in test [4], binding was characterised by a dissociation constant (Kd) of 0.0383 nM, the dissociation rate constant (koff) stood at 2.19e-05 s⁻¹ and the kon was 572000 M⁻¹ s⁻¹. In test [5], this molecule displayed a Kd of 0.0499 nM, a koff of 2.59e-05 s⁻¹ and an on-rate (kon) of 519000 M⁻¹ s⁻¹.

B4: zu155D5-4 (antibody, human IgG1, kappa)
heavy: not shown
light: DIQMTQSPSTLSASVGDRVTITCQASQSISSYLAWYQQKPGKAPKLLIYYASTLASGVPSRFSGSGSGTEFTLTITGVQCDDAATYYCLGVYGYSFDDGIAFGGGTKVEIKRTVAAPSVFIFPPSDEQLKSGTASVVCLLNNFYPREAKVQWKVDNALQSGNSQESVTEQDSKDSTYSLSSTLTLSKADYEKHKVYACEVTHQGLSSPVTKSFNRGEC
notes: Humanized 155D5, human IgG1 kappa; Tested both protein A purified and decapped
Take B4: the “fold difference in KD against chimeric xi155D5” value (“fold difference in KD” below) in test [6] was less than 2 fold. In test [7], this molecule showed a Kd of 0.664 nM, an off-rate (koff) of 0.000382 s⁻¹ and a kon of 577000 M⁻¹ s⁻¹. In test [8], this molecule returned a dissociation constant Kd of 0.59 nM, a koff of 0.000378 s⁻¹ and a kon of 641000 M⁻¹ s⁻¹.

B5: zu155D5-7 (antibody, human IgG1, kappa)
heavy: not shown
light: B4 light with K107E, V108L
notes: as for B4
With B5, in test [6], the “fold difference in KD” value is less than 2 fold. Further, in test [7], the Kd is 0.534 nM, the koff was 0.000458 s⁻¹ and the on-rate (kon) amounted to 869000 M⁻¹ s⁻¹. In test [8], this molecule registered an equilibrium dissociation constant (Kd) of 0.68 nM, a koff of 0.000319 s⁻¹ and a kon of 485000 M⁻¹ s⁻¹.

B6: zu155D5-5 (antibody, human IgG1, kappa, V domains shown)
VH: QVQLVESGGGLVQPGGSLRLSCSASGFSLNSYAMIWVRQAPGKGLEYIGFITTGGTTYYADSVKGRFTISRDNSKNTLYLQMNSLRAEDTAVYYCARDRVKSYDDYGDLDAFEPWGQGTLVTVSS
VL: DIQMTQSPSTLSASVGDRVTITCQASQSISSYLAWYQQKPGKAPKLLIYYASTLASGVPSRFKGSGSGTEFTLTITGVQCDDAATYYCLGVYGYSFDDGIAFGGGTKVEIKR
notes: as for B4
Regarding B6, in test [6], the “fold difference in KD” value is less than 2 fold. In test [7], this molecule displayed a Kd of 0.639 nM, a koff of 0.000373 s⁻¹ and a kon of 587000 M⁻¹ s⁻¹. For the same molecule, in test [8], binding was characterised by a dissociation constant (Kd) of 0.478 nM, the off-rate (koff) stood at 0.000273 s⁻¹ and the kon came out at 572000 M⁻¹ s⁻¹.

B7: zu155D5-6 (antibody, human IgG1, kappa)
heavy: not shown
light: B4 light with L11V, S14A, D17G, R18T
notes: as for B4
B7: the “fold difference in KD” value in test [6] was less than 2 fold. In test [7], this molecule came in with a Kd of 0.533 nM, a koff of 0.000477 s⁻¹ and an on-rate (kon) of 898000 M⁻¹ s⁻¹. Besides, in test [8], the affinity, expressed as Kd, was 0.568 nM; the koff was 0.000319 s⁻¹; the kon is 558000 M⁻¹ s⁻¹.

B8: zu155D5-2 (antibody, human IgG1, kappa, V domains shown)
VH: B6 VH
VL: B6 VL with K63S, A83F
notes: as for B4
With B8, in test [6], the “fold difference in KD” value was less than 2 fold. Moreover, in test [7], the affinity, expressed as Kd, was 0.569 nM; the dissociation rate constant (koff) was determined as 0.000376 s⁻¹; the kon is 663000 M⁻¹ s⁻¹. In test [8], this molecule gave a Kd of 0.589 nM, a koff of 0.00027 s⁻¹ and an on-rate constant (kon) of 458000 M⁻¹ s⁻¹.

B9: zu155D5-3 (antibody, human IgG1, kappa, V domains shown)
VH: B6 VH
VL: B6 VL with K63S, T76S, G77S, V78L
notes: Humanized 155D5, human IgG1 kappa; Tested both protein A purified and decapped; also called zu155D5-CXXA
For the molecule B9, the “fold difference in KD” value in test [6] is less than 2 fold. In test [7], this molecule had an equilibrium dissociation constant (Kd) of 0.562 nM, an off-rate (koff) of 0.000401 s⁻¹ and an on-rate (kon) of 727000 M⁻¹ s⁻¹. In test [8], this molecule yielded an equilibrium dissociation constant (Kd) of 0.507 nM, an off-rate constant (koff) of 0.000351 s⁻¹ and a kon of 726000 M⁻¹ s⁻¹.

B10: zu155D5-1 (antibody, human IgG1, kappa, V domains shown)
VH: B6 VH
VL: B6 VL with K63S, T76S, G77S, V78L, A83F
notes: Humanized 155D5, human IgG1 kappa; Tested both protein A purified (Cys80 capped) and decapped; also called zu155D5-CXXF; zu155D5-1 (huVK1-5)
Turning to B10, in test [6], the “fold difference in KD” value was less than 2 fold. In test [7], this molecule came in with an equilibrium dissociation constant (Kd) of 0.498 nM, a dissociation rate constant (koff) of 0.000495 s⁻¹ and an on-rate (kon) of 1.01e+06 M⁻¹ s⁻¹. In addition, in test [8], the equilibrium dissociation constant (Kd) is 0.5 nM, the koff amounted to 0.000355 s⁻¹ and the kon was determined as 770000 M⁻¹ s⁻¹.
